In US20240376193A1 (BIOSCEPTRE AUST, published 2024):

T1: E200 peptide
T1 construct: Antigen derived from dysfunctional P2X7 receptor
T1 peptide: GHNYTTRNILPGLNITC

B1: BIL03 VH only (other)
VH: EVQLLESGGGLVQPGGSLRLSCAASGFTFRNHDMGWVRQAPGKGLEWVSAISGSGGSTYYANSVKGRFTISRDNSKNTLYLQMNSLRAEDTAVYYCAEPKPMDTEFDYRSPGTLVTVSS
notes: Human single-domain VH tested without a light chain; also called BIL03 heavy chain; single domain heavy chain protein BIL03
B2: BIL03-Germline B1 (other)
VH: B1 VH
VL: DIQMTQSPSSLSASVGDRVTITCRASQSISSYLNWYQQKPGKAPKLLIYAASSLQSGVPSRFSGSGSGTDFTLTISSLQPEDFATYYCQQFDYMPLTFGQGTKVEIKR
notes: also called G B1; GB1
B3: BIL03-WT B1 (scFv format) (scFv, V domains shown)
VH: B1 VH
VL: DIQMTQSPSSLSASVGDRVTITCRASQYIYDYLNWYQQKPGKAPKLLIYAASYLQSGVPSRFSGSGSGTDFTLTISSLQPEDFATYYCQQYHHPSTFGQGTKVEIKR
notes: Tested in scFv format, so VH and VL sit in one polypeptide

Molecular target: T1, E200 peptide
Experiment: binding kinetics on E200 peptide; method not stated; column 'affinity (nM) (E200)'

Point of comparison: B1, Kd 127 nM. Against it:
- B2 — 1.5-fold lower, 83 nM
- B3 — 5.3-fold lower, 24 nM

Molecular target: T1, E200 peptide
Experiment: binding kinetics on E200 peptide; method not stated

Point of comparison: B1, Kd 127 nM. Against it:
- B2 — 1.5-fold lower, 82.7 nM
- B3 — 5.2-fold lower, 24.2 nM
